Measured values published in US20030162258A1, “Inhibitors of G protein-mediated signaling, methods of making them, and uses thereof” (Northwestern University, priority 2000, published 2003).

What was measured:
[1] = molecular target: thrombin receptor, PAR-1, in human microvascular endothelial cells (HMEC) (human) (UniProt P25116); experiment: cell-based or functional assay
[2] = tested on: PAR-1 gene promotor; experiment: Thrombin-stimulated PAR-1 gene induction, luciferase reporter assay in HMEC; type: cell-based, human; details: 10 nanomolar thrombin, four hours, pertussis toxin 100 nanograms per milliliter pretreatment
From the text: Thrombin treatment of cells induces the expression of the gene encoding its GPCR, PAR-1. This induction is mediated through the PAR-1 gene promotor sequence. The PAR-1 gene promotor sequence can be made to direct the expression of a reporter gene such as, the luciferase gene, thereby providing a means of observing the level of PAR-1 gene induction occurring in response to thrombin treatment of cells.
A PAR-1 promoter sequence comprising 1.82 kilobases was inserted upstream of the gene, Firefly (Photinus pyralis) luciferase in a pGL2 vector DNA to generate the plasmid DNA, PCR-1/Luc. The sea pansy (Renilla reniformis) luciferase gene operably linked to the Herpes Simplex Virus-Thymidine Kinase promoter (TK) in a pRL vector DNA (TK/pRL) served as an internal control to correct for experimental variation. HMEC were co-transfected with 100 nanograms each of a reporter DNA, PCR-1/Luc or TK/pRL, and one of pcDNA3.1, pcDNA-Gαi, or pcDNA-GαiR using protocols and reagents described in the previous Example. Twenty four hours post-transfection, HMEC were incubated in serum-free culture media (Dulbecco's Modified Eagles Medium, DMEM) for 2 hr at 37° C., following which, thrombin was added to the culture media at a concentration of 10 nanomolar. The cells were then incubated at 37° C. for four hours and lysed. […]

UniProt P25116, sequence (P25116 42-425): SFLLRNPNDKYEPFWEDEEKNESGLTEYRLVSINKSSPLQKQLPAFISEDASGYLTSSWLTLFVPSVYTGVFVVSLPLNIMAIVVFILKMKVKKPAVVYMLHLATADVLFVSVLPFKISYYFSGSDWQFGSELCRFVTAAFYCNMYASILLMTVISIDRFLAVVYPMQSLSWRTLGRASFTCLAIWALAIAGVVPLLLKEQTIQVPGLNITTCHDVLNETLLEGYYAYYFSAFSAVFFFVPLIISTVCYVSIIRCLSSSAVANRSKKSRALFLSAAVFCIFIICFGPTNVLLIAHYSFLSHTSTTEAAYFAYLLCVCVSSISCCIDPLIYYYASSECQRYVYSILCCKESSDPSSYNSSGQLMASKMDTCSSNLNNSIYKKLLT

Row | Substance | decrease in transendothelial electrical resistance (TEER) following thrombin stimulation, HMEC [1] | level of luciferase activity after thrombin treatment (PAR-1 gene induction) [2]
1 | Gαs carboxy terminal peptide encoded by minigene pcDNA-Gαs (from UniProt P63092 384-394) | 23% | –
2 | Pertussis toxin | – | blocked the increase in luciferase levels
